# Legend:
# Assay in all cases: Kinetic constants of AMC substrate hydrolysis by hK2
# Assay type in all cases: biochemical, human
# Details in all cases: other: 50 mM Tris pH 7.5, 0.1 M NaCl, 0.2% BSA, 37° C., Lineweaver-Burk
# [1] = tested on: T1, Cc1cc(=O)oc2cc(NC(=O)[C@H](CCCNC(=N)N)NC(=O)[C@H](CC(C)C)NC(=O)[C@H](CC(C)C)NC(=O)OCc3ccccc3)ccc12
# T1 construct: made in house
# Description: (§1) The measurements were done with Fluoroscan II (Labsystems, Helsinki, Finland) using a 355 nm excitation filter and a 460 nm emission filter. The fluorescence of 7-amino-4-methylcoumarin (AMC) (Sigma, St. Louis, Mo., USA) was determined to be 700 FIU/nmol and this value was used in the calculations of the rate of product formation. Unless otherwise indicated all final analyses were performed in 200 μl of the buffer 50 mM Tris pH 7.5, 0.1 M NaCl, and 0.2% BSA at 37° C. using 1.6 pmol hK2. BSA was added to the reaction mixture in order to minimize adsorption of the enzyme to the walls of the microtiter wells. The amount of hK2 was quantified by a commercial PSA immunoassay (Prostatus, Wallac, Turku, Finland) with the Mabs H1 17 and H50 which recognize PSA and hK2 equally well (Lovgren et al., Biochem. Biophys. Res. Co., 213, 888-895 (1995)). Under the conditions described, 1.6 pmol of the hK2 preparation cleaved 50 pmol/min of the 100 μM substrate Pro-Phe-Arg-AMC (SEQ ID NO: 55). During the 20 minute measurement time the consumption of the substrates is <7% of their total amount and was not considered to affect the reaction rate. Initial analysis of the substrates were performed with 3.2 pmol hK2 at a substrate concentration of 250 μM. Km value for the substrates cleaved by hK2 at these conditions were determined using at least four substrate concentrations ranging from 0.2×Km to 5×Km. The Km and kcat values were calculated from Lineweaver-Burk plots.
# (§2) Substrates ending in either arginine or lysine were tested. […] However, no hydrolysis of Arg-Gln-Arg-Arg-AMC (SEQ ID NO: 63) was detected. […] As with the semenogelins, hK2 also here cleaves substrates with Arg at position P1 and preferentially a large residue or another Arg at position P2. None of the substrates with lysine in the C-terminal position were cleaved.
# (§3) The activity listed in Table 1 is hydrolytic activity of hK2 with 100 μM substrate in relation to the hydrolytic activity of hK2 with 100 μM of the tissue kallikrein substrate H-Pro-Phe-Arg-AMC (SEQ ID NO: 55). The entry “NR” means that no reaction was detected.
# [2] = tested on: T2, Cc1cc(=O)oc2cc(NC(=O)[C@H](CCCNC(=N)N)NC(=O)[C@@H]3CCCN3C(=O)[C@@H](NC(=O)OC(C)(C)C)C(C)C)ccc12
# T2 construct: made in house
# Description: as §1, §2, §3
# [3] = tested on: T3, Cc1cc(=O)oc2cc(NC(=O)[C@H](CCCNC(=N)N)NC(=O)[C@H](CCCNC(=N)N)NC(=O)[C@H](C)NC(=O)OCc3ccccc3)ccc12
# T3 construct: made in house
# Description: as §1, §2, §3
# [4] = tested on: T4, Cc1cc(=O)oc2cc(NC(=O)[C@H](CCCNC(=N)N)NC(=O)[C@H](Cc3ccccc3)NC(=O)[C@@H]3CCCN3)ccc12
# T4 construct: made in house
# Description: as §1, §2, §3
substance,measurement,setting,value
recombinant hK2 (Homo sapiens),Km,[1],71 µM
same,kcat,[1],0.04 s⁻¹
same,kcat/Km,[1],567 M⁻¹ s⁻¹
same,Km,[2],48 µM
same,kcat,[2],0.0267 s⁻¹
same,kcat/Km,[2],567 M⁻¹ s⁻¹
same,Km,[3],20 µM
same,kcat,[3],0.12 s⁻¹
same,kcat/Km,[3],6000 M⁻¹ s⁻¹
same,Km,[4],40 µM
same,kcat,[4],0.917 s⁻¹
same,kcat/Km,[4],22900 M⁻¹ s⁻¹
